# Assay results: IntAct's records for PubMed 11100732
# B1: Autophagy-related protein 3 (Saccharomyces cerevisiae), P40344 (parent)
# chain: MIRSTLSSWREYLTPITHKSTFLTTGQITPEEFVQAGDYLCHMFPTWKWNEESSDISYRDFLPKNKQFLIIRKVPCDKRAEQCVEVEGPDVIMKGFAEDGDEDDVLEYIGSETEHVQSTPAGGTKDSSIDDIDELIQDMEIKEEDENDDTEEFNAKGGLAKDMAQERYYDLYIAYSTSYRVPKMYIVGFNSNGSPLSPEQMFEDISADYRTKTATIEKLPFYKNSVLSVSIHPCKHANVMKILLDKVRVVRQRRRKELQEEQELDGVGDWEDLQDDIDDSLRVDQYLIVFLKFITSVTPSIQHDYTMEGW
# partner: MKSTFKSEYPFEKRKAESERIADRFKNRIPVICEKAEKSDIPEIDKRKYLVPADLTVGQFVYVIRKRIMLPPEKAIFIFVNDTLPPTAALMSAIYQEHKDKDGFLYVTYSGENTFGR
# Variants of: B1
# Details: with atg8_yeast ATG8, P38182
row,Variant,effect of a mutation on the interaction
1,C234S,disrupting interaction
2,C234A,disrupting interaction
